The target in this experiment is Chikungunya virus (CHIKV) strain S27 E1 glycoprotein (Chikungunya virus strain S27). As to the kind of experiment: cryo-EM structure; cryo-ET with sub-tomogram averaging (PEET) of 591 protein spikes on liposomes after completed fusion with CHIKV at low pH, late time points, room temperature; 27.2 Å at 0.5 FSC; 3-fold symmetry seen before it was imposed.

One may read the stoichiometry N as a count of units in the complex or per binding partner.

The substance “Chikungunya virus (CHIKV) strain S27 E1 glycoprotein (natural protein)” showed a stoichiometry N of 3.
